Results: paper PMC6305486
Each block holds one substance with its values, some of them ahead of it.

Experiments:
FtsQ_(50–276) = FtsQ_(50–276) (UniProt P06136); assay: BLI; conditions: GST-e5-FtsB (mutant) in complex with k5-FtsL immobilized; FtsQ analyte 0-80 µM; parent: 0.24 ± 0.01
[1] = biological target: e5-FtsB_(25–103)/k5-FtsL_(64–121) complex (E. coli) (UniProt P0A6S5); assay: SEC; analytical gel filtration, Superdex 200 10/300 GL, buffer B (20 mM Tris-HCl pH 8.0, 200 mM NaCl), 0.5 mL/min; high concentrations (101–370 μM); apparent Stokes radius compared with radii calculated from models
[2] = biological target: e5-FtsB_(25–103)/k5-FtsL_(64–121) complex (E. coli) (UniProt P0A6S5); assay: SEC; analytical gel filtration, Superdex 200 10/300 GL, buffer B (20 mM Tris-HCl pH 8.0, 200 mM NaCl), 0.5 mL/min; low concentrations (6.8–22.2 μM); apparent Stokes radius compared with radii calculated from models
[3] = biological target: GST-fused e5-FtsB_(25–103) E68A/k5-FtsL_(64–121) complex (E. coli) (UniProt P0A6S5); assay: BLI; BLItz; GST-fused FtsB proteins or GST-e5-FtsB/k5-FtsL complexes immobilised on AR2G biosensor by amine coupling; FtsQ_(50–276) (WT or Y248A) in solution, 0.1–80 μM; running buffer 20 mM Tris-HCl pH 8.0, 200 mM NaCl; equilibrium analysis of points at 100 s
[4] = biological target: GST-fused e5-FtsB_(25–103)/k5-FtsL_(64–121) complex (WT) (E. coli) (UniProt P0A6S5); assay: as above

FtsQ_(50–276) (from UniProt P06136 50-276) (domain or fragment), sequence (P06136 50-276): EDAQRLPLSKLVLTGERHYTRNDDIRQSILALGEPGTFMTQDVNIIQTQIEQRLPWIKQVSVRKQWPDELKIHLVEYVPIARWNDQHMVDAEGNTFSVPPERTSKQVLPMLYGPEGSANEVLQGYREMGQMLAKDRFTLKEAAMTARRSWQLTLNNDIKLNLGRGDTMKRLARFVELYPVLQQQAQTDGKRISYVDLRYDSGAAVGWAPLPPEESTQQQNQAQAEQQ
FtsQ_(50–276) (UniProt P06136), sequence (P06136 whole entry, looked up, tested part not stated): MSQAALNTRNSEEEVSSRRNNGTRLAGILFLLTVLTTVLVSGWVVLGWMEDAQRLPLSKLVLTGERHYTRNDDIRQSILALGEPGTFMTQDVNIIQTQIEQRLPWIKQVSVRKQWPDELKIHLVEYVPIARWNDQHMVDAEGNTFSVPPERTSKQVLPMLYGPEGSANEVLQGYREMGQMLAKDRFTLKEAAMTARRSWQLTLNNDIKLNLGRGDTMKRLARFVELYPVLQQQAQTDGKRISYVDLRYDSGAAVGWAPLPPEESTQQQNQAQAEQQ

- Kd (FtsQ_(50–276)): > 100 µM
Substance: GST-fused e5-FtsB_(25–103)/k5-FtsL_(64–121) complex (WT) (from UniProt P0A6S5;P0AEN4) E82R

- stoichiometry N (FtsQ:FtsB:FtsL ratio (1:1:1)) [1]: 1
- stoichiometry N (FtsQ:FtsB:FtsL ratio (2:2:2)) [1]: 1
- stoichiometry N (FtsQ:FtsB:FtsL ratio (1:1:1)) [2]: 1
- stoichiometry N (FtsQ:FtsB:FtsL ratio (2:2:2)) [2]: 1
- fold reduction of affinity against WT [3]: 10 fold
- Kd [4]: 0.24 µM
Substance: FtsQ_(50–276) (from UniProt P06136 50-276) (domain or fragment)

- Kd (FtsQ_(50–276)): > 100 µM
Substance: GST-fused e5-FtsB_(25–103)/k5-FtsL_(64–121) complex (WT) (from UniProt P0A6S5;P0AEN4) E69R

- Kd (FtsQ_(50–276)): > 100 µM
Substance: GST-fused e5-FtsB_(25–103)/k5-FtsL_(64–121) complex (WT) (from UniProt P0A6S5;P0AEN4) R72E
